Assay results taken from patent US20250051437A1.

Tests used:
[1] = molecular target: monkey (crab-eating macaque) CDH17 fused to moxGFP, overexpressed on HEK293T cells (monkey (crab-eating macaque)); test: KinExA, cell-based, HEK293T monkey CDH17mGFP mass population
[2] = molecular target: monkey (crab-eating macaque) CDH17 fused to moxGFP, overexpressed on HEK293T cells (monkey (crab-eating macaque)); test: flow cytometry on HEK293T monkey CDH17mGFP mass population, 20 µg/ml
[3] = molecular target: monkey (crab-eating macaque) CDH17 fused to moxGFP, overexpressed on HEK293T cells (monkey (crab-eating macaque)); test: KinExA, cell-based, HEK293T overexpressing monkey CDH17 fusion (FIG. 16)
[4] = molecular target: monkey (crab-eating macaque) CDH17 fused to moxGFP, overexpressed on HEK293T cells (monkey (crab-eating macaque)); test: flow cytometry (BD C6), 1 µg antibody on HEK293T Macaque CDH17 moxGFP cells, labelled anti-human IgG Fc secondary antibody; same antibody on HEK293T Parental: 600.46
[5] = molecular target: monkey (crab-eating macaque) CDH17 fused to moxGFP, overexpressed on HEK293T cells (monkey (crab-eating macaque)); test: flow cytometry (BD C6), 1 µg antibody on HEK293T Macaque CDH17 moxGFP cells, labelled anti-human IgG Fc secondary antibody; same antibody on HEK293T Parental: 817.99
[6] = molecular target: monkey (crab-eating macaque) CDH17 fused to moxGFP, overexpressed on HEK293T cells (monkey (crab-eating macaque)); test: flow cytometry (BD C6), 1 µg antibody on HEK293T Macaque CDH17 moxGFP cells, labelled anti-human IgG Fc secondary antibody; same antibody on HEK293T Parental: 593.57

| Binder | Kd [1] [nM] | Cross Reactivity by Flow [2] | Kd [3] [nM] | FL4-H [4] | FL4-H [5] | FL4-H [6] |
| --- | --- | --- | --- | --- | --- | --- |
| humanized anti-CDH17 antibody 07-0663-h7 (antibody, human IgG1, kappa, V domains shown) VH: QVQLVQSGAEVKKPGSSVKISCKVSGYTFTDHTIHWMRQAPGQGLEWIGYIFPRDDIVVYAQKFQGRATLTADKSTSTAYMELSSLRSEDTAVYYCARPPYYYSRNFYFDYWGQGTTLTVSS VL: DIQMTQSPSSLSASVGDRVTITCRVSSIISSSKLHWYQQKPGKAPKPLIYGTSTLASGVPSRFSGSGSGTDYTLTISSLQPEDFATYYCQQWSNYPFTFGQGTKLEIKR | 0.336 | 41300 | < 1 | 159000 |  |  |
| humanized anti-CDH17 antibody 07-0653-h43 (antibody, human IgG1, V domains shown) VH: QVQLVQSGAEVKKPGASVKVSCKASGYTFTDYYMNWVRQAPGQGLEWMGVIYPYSGGIGYAQKFQGRVTMTVDKSTSTAYMELSSLRSEDTAVYYCARGRGDYFGLFDFWGQGTTVTVSS VL: DIQLTQSPSSLSASVGDRVTITCRATSSLSYIHWYQQKPGKAPKPLIYEISKLASGVPSRFSGSGSGTDYTLTISSLQPEDFATYYCQQWNYPFTFGQGTKLEIK | 0.946 | 29800 | < 1 |  | 182000 |  |
| humanized anti-CDH17 antibody 07-0646-h7 (antibody, human IgG1, V domains shown) VH: QVQLVQSGAEVKKPGASVKMSCKASGYTFTSYNMHWVRQAPGQGLEWIGAIYPGNGDTSYAQKFQGRATLTVDTSTSTAYMELSSLRSEDTAVYYCARGRGRYFEYWGQGTTLTVSS VL: DIQLTQSPSSLSASVGDRVTMTCRASSSVSSSYLHWYQQKPGKAPKLLIYSTSNLASGVPSRFSGSGSGTDYTLTISSVQPEDFATYYCQQYDSSPSTFGQGTKLEIK | 0.657 | 16900 | < 1 |  |  | 145000 |
